From US20140323699A1 (CALIFORNIA INSTITUTE OF TECHNOLOGY, published 2014)

Target: T1, glycosylated synapsin I from olfactory bulb lysate (rat, UniProt P09951 1-704, limits assumed, Fucα(1-2)Gal glycosylated (sites not given))
T1 construct: Endogenous protein in tissue lysate, detected by Western blot with mouse anti-synapsin I ascites
Experiment: lectin affinity chromatography on UEAI-agarose, elution with 200 mM L-fucose, Western blot for synapsin I

- binding result: no binding (tested: 500 µg lysate)
B1: UEAI lectin conjugated to agarose (Vector Laboratories) (other, UniProt P22972 1-243, looked up)
chain: SDDLSFKFKNFSQNGKDLSFQGDASVIETGVLQLNKVGNNLPDETGGIARYIAPIHIWNCNTGEVASFITSFSFFMETSANPKAATDGLTFFLAPPDSPLRRAGGYFGLFEDTKDNDSSYQTVAVEFDTIGSPVNFDDPGFPHIGIDVNRVKSINAERWNKRYGLNNVANVEIIYEASSKTLTASLTYPSDQTSISVTSIVDLKEILPEWVSVGFSGGTYIGRQATHEVLNWYFTSNLINTNS
modifications: conjugated to agarose
